Key:
M.TaqI V21G V21G = details: natural cofactor AdoMet; R.TaqI protection assay; analogs 3: 5, 4: <5, 5: 640, 6: 20, 7: 80, 8: 80, 9: 2560
[1] = test system: M.SssI Q142A (DNA cytosine-C5 methyltransferase) Q142A (Spiroplasma sp.?); details: natural cofactor AdoMet; R.BstUI protection assay, 37 C; analogs 5: 1.2, 7: 0.6
M.HhaI Q82A Q82A = molecular target: T1, M.HhaI Q82A Q82A (UniProt P05102); details: natural cofactor AdoMet; R.Hin6I protection assay; analogs 3: 7, 4: 0, 5: 29, 6: <4, 7: 58, 8: <4
T1 sequence: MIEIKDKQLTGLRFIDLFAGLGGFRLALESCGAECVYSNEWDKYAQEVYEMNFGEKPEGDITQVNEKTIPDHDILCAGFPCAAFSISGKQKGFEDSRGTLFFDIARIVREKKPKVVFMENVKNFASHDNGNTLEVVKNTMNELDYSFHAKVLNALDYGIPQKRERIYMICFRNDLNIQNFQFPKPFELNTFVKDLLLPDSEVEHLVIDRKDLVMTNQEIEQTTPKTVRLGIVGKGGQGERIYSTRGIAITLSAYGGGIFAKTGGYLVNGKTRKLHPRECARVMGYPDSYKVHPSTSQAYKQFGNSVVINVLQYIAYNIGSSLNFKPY

[2] = molecular target: M.TaqI (DNA adenine-N6 methyltransferase) (UniProt P14385); details: natural cofactor AdoMet; R.TaqI protection assay, 60 C 4 h; analogs 3: 10, 4: <5, 5: 80, 6: 10, 7: 1280, 8: 640, 9: 640; cofactor 10: 11 u/ug (1 h)
[3] = test system: M.HhaI (DNA cytosine-C5 methyltransferase); details: natural cofactor AdoMet; R.Hin6I protection assay, 37 C; analogs 3: <4, 4: 0, 5: 7, 6: <4, 7: 29, 8: <4
[4] = test system: M.BcnIB (DNA cytosine-N4 methyltransferase); details: natural cofactor AdoMet; R.BcnI protection assay, 37 C; analogs 3-5: <7, 6: 0, 7: 28, 8: 14

Sequence of M.TaqI (DNA adenine-N6 methyltransferase) (P14385 whole entry): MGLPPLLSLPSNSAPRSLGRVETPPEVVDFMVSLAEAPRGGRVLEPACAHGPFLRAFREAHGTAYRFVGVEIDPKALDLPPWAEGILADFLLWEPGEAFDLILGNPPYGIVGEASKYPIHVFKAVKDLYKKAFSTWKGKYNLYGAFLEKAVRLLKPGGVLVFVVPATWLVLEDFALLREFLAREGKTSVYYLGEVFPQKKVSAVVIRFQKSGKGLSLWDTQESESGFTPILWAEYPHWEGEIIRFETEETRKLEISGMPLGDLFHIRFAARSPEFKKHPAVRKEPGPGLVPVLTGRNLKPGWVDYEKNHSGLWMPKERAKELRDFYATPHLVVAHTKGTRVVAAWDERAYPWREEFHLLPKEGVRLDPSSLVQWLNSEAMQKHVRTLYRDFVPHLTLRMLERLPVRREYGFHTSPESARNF

Substance: phage lambda DNA (48502 bp)
- activity (M.TaqI V21G V21G): 320 u/µg
- activity [1]: 20 u/µg
- activity (M.HhaI Q82A Q82A): 115 u/µg
- activity [2]: 41000 u/µg
- activity [3]: 460 u/µg
- activity [4]: 444 u/µg

Reference: patent US20090018101
